Source: US20070148774A1

What was measured:
[1] = biological target: bovine thyroglobulin (bovine) (UniProt P01267); experiment: phage ELISA, 200 ug/ml thyroglobulin coated
[2] = biological target: fd h-PDGFB-R phage (extracellular domain of the human receptor for PDGF isoform BB displayed on fd phage) (human; bacteriophage fd) (UniProt P09619); experiment: displacement of 125I-PDGF-BB from receptor phage, immunoprecipitation
Chain of fd h-PDGFB-R phage (extracellular domain of the human receptor for PDGF isoform BB displayed on fd phage) (human; bacteriophage fd) (P09619 33-531, form in doubt): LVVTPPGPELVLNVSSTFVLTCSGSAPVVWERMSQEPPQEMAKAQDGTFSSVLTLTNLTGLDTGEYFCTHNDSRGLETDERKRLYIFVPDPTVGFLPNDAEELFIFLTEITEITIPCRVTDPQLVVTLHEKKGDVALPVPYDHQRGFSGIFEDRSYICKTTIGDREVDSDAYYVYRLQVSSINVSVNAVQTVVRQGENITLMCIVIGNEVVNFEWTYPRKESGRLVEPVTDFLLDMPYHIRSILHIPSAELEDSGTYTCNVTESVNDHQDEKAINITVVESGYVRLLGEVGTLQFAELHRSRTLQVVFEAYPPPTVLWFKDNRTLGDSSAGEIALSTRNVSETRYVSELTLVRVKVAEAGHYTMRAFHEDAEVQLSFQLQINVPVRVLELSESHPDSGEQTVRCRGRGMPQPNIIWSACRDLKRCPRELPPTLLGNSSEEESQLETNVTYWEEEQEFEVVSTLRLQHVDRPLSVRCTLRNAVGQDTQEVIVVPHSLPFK

Chain of bovine thyroglobulin (bovine) (P01267 20-2769 limits assumed): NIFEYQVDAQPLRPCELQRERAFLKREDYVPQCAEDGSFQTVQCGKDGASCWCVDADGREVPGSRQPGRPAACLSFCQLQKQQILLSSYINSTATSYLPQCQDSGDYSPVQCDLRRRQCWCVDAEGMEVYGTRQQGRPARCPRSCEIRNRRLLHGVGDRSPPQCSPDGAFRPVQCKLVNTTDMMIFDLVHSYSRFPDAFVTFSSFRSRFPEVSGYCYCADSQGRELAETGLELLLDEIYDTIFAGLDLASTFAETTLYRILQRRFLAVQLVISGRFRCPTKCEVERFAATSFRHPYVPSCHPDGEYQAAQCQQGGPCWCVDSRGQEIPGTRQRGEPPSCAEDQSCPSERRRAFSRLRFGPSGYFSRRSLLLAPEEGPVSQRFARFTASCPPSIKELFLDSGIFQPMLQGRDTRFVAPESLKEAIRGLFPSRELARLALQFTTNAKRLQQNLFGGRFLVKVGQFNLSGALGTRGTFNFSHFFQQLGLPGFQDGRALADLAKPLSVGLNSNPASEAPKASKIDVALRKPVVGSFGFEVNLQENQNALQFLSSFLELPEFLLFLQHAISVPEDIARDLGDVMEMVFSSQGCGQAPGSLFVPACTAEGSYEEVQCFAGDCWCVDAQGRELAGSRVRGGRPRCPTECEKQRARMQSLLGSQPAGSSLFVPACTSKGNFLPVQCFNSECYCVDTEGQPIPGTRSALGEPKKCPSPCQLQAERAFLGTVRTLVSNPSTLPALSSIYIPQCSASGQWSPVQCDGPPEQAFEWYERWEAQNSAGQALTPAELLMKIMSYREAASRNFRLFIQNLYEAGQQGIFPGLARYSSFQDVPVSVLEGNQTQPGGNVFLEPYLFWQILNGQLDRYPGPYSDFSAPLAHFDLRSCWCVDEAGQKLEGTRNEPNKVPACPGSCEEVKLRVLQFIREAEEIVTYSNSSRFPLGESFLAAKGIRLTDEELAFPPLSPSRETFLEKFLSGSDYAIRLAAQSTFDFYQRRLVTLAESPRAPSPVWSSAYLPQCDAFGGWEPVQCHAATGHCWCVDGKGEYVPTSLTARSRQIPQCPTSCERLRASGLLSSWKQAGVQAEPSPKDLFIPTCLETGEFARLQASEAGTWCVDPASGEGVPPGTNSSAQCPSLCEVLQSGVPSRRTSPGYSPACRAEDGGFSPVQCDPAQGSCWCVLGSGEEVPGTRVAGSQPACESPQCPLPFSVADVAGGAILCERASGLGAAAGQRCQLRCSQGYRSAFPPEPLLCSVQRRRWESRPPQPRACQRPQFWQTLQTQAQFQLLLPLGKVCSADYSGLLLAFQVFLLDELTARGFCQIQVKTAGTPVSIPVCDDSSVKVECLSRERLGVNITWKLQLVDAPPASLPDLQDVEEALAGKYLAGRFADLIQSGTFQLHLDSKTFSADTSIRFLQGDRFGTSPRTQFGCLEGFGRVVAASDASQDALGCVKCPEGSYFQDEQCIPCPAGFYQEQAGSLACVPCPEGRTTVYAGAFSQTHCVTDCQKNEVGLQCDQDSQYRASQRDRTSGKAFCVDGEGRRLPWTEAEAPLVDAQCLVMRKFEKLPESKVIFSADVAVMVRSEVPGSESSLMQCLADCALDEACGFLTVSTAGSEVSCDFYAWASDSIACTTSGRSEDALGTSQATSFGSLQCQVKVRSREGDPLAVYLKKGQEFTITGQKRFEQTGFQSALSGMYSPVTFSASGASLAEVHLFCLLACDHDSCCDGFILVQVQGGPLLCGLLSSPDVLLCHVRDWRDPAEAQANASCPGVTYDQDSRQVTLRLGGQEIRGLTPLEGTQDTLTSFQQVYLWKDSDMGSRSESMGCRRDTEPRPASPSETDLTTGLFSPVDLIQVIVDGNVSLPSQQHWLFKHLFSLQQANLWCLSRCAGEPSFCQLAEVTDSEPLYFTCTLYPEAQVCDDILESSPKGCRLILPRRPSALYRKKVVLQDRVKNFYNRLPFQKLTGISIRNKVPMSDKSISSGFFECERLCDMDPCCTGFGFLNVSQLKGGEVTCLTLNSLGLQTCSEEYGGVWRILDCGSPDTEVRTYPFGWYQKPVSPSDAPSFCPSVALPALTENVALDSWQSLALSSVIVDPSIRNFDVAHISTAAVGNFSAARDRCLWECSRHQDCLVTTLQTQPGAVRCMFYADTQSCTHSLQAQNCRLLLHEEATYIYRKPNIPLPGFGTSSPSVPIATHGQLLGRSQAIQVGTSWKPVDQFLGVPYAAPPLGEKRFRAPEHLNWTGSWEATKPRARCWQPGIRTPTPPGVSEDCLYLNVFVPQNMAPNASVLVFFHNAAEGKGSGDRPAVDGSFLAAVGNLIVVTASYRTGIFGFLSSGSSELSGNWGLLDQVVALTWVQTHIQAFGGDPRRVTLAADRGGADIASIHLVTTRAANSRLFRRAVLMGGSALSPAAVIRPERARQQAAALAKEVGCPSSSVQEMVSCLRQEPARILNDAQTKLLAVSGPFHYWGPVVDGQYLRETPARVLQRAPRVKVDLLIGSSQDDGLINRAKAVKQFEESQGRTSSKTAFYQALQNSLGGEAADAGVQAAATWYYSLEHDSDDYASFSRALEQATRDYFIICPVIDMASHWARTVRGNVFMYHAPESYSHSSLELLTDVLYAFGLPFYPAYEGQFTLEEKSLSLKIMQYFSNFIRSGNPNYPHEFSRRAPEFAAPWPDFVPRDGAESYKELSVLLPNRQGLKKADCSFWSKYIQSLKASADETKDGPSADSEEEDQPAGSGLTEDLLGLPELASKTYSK

pCAT-3 non-recombinant vector phagemid particles (from UniProt P03661 19-424)
O.D. in ELISA [1]: 0.07 O.D.

unlabelled PDGF-BB (from UniProt P01127 82-190; P01127 82-190) (ligand)
concentration at which binding of 125I-PDGF-BB was reduced to the control level [2]: 50 nM
